# Results published in patent US20200199204A1 (UNITED STATES OF AMERICA AS REPRESENTED BY THE SECRETARY …, published 2020).
# Columns and labels:
# Assay in all cases: cell-based or functional assay
# [1] = molecular target: HIV-1 Env of CM244.ec1 (HIV-1)
# [2] = molecular target: HIV-1 Env of Q769.d22 (HIV-1)
# [3] = molecular target: Env of SIVmac251.30 (SIV (printed as nonHIV))
# [4] = molecular target: HIV-1 Env of Q842.d12 (HIV-1)
# [5] = molecular target: HIV-1 Env of 191821.E6.1 (HIV-1)
# [6] = molecular target: HIV-1 Env of ZM53.12 (HIV-1)
# [7] = molecular target: HIV-1 Env of CAAN.A2 (HIV-1)
# [8] = molecular target: HIV-1 Env of CAP256.SU (HIV-1)
# [9] = molecular target: HIV-1 Env of CAP45.G3 (HIV-1)
# [10] = molecular target: HIV-1 Env of QH0692.42 (HIV-1)
# [11] = molecular target: HIV-1 Env of Q259.d2.17 (HIV-1)
# [12] = molecular target: HIV-1 Env of C1080.c3 (HIV-1)
# [13] = molecular target: HIV-1 Env of ZM197.7 (HIV-1)
# [14] = molecular target: HIV-1 Env of ZM249.1 (HIV-1)
# [15] = molecular target: HIV-1 Env of CAP256.PI (HIV-1)
# [16] = molecular target: HIV-1 Env of KER2008.12 (HIV-1)
# [17] = molecular target: HIV-1 Env of 3016.V5.c36 (HIV-1)
# [18] = molecular target: HIV-1 Env of BG505.w6m (HIV-1)
# [19] = molecular target: HIV-1 Env of KER2018.11 (HIV-1)
# [20] = molecular target: HIV-1 Env of REJO.67 (HIV-1)
# [21] = molecular target: HIV-1 Env of 6535.3 (HIV-1)
# [22] = molecular target: HIV-1 Env of UG037.8 (HIV-1)
# [23] = molecular target: HIV-1 Env of SC422.8 (HIV-1)
# [24] = molecular target: HIV-1 Env of Q168.a2 (HIV-1)
# [25] = molecular target: HIV-1 Env of THRO.18 (HIV-1)
# [26] = molecular target: HIV-1 Env of MB539.2B7 (HIV-1)
# [27] = molecular target: HIV-1 Env of ZM109.4 (HIV-1)
# [28] = molecular target: HIV-1 Env of DU156.12 (HIV-1)
# [29] = molecular target: HIV-1 Env of TRO.11 (HIV-1)
# [30] = molecular target: HIV-1 Env of TRJO.58 (HIV-1)
# [31] = molecular target: HIV-1 Env of ZM135.10a (HIV-1)
# [32] = molecular target: HIV-1 Env of DU172.17 (HIV-1)
# [33] = molecular target: HIV-1 Env of 0260.v5.c36 (HIV-1)
# [34] = molecular target: HIV-1 Env of Q461.e2 (HIV-1)
# [35] = molecular target: HIV-1 Env of Q23.17 (HIV-1)
# [36] = molecular target: HIV-1 Env of ZM233.6 (HIV-1)
# [37] = molecular target: HIV-1 Env of 6405.v4.c34 (HIV-1)
# [38] = molecular target: HIV-1 Env of AC10.29 (HIV-1)
# [39] = molecular target: HIV-1 Env of CAP244.D3 (HIV-1)
# [40] = molecular target: HIV-1 Env of WITO.33 (HIV-1)
# [41] = molecular target: HIV-1 Env of CAP210.E8 (HIV-1)
# [42] = molecular target: HIV-1 Env of CNE3 (HIV-1)
# [43] = molecular target: HIV-1 Env of RW020.2 (HIV-1)
# [44] = molecular target: HIV-1 Env of RHPA.7 (HIV-1)
# [45] = molecular target: HIV-1 Env of 96ZM651.02 (HIV-1)
# [46] = molecular target: HIV-1 Env of ZM214.15 (HIV-1)
# [47] = molecular target: HIV-1 Env of DU422.01 (HIV-1)
# [48] = molecular target: HIV-1 Env of PVO.04 (HIV-1)
# [49] = molecular target: HIV-1 Env of TH976.17 (HIV-1)
# [50] = molecular target: HIV-1 Env of MB201 (HIV-1)
binder,measurement,setting,value
"CAP256-VRC26.01 (antibody, V domains shown) VH: EVQVVESGGGVVQPGRSLRLSCTASGFTFSNFAMGWVRQAPGKGLEWVAFISSDGSNKNYGDSVKGRFTISRDNSKNTVFLQMNSLRVEDTALYYCAKDVGDYKSDEWGTEYYDISISYPIQDPRAMVGAFDLWGQGTMVTVSP VL: QSVLTQPPSVSAAPGQKVTISCSGSSSTIGNNYVSWYRLLPGTAPKLLIYKNDNRPSGIPDRFSGSKSGTSATLGISGLQTGDEADYYCGTWDTSLSGGGVFGTGTKVTVLG",neutralization IC50,[1],3.32 mg/L
same,neutralization IC50,[2],> 50 mg/L
same,neutralization IC50,[3],> 50 mg/L
same,neutralization IC50,[4],> 50 mg/L
same,neutralization IC50,[5],> 50 mg/L
same,neutralization IC50,[6],0.103 mg/L
same,neutralization IC50,[7],> 50 mg/L
same,neutralization IC50,[8],0.14 mg/L
same,neutralization IC50,[9],> 50 mg/L
same,neutralization IC50,[10],> 50 mg/L
same,neutralization IC50,[11],> 50 mg/L
same,neutralization IC50,[12],> 50 mg/L
same,neutralization IC50,[13],10.4 mg/L
same,neutralization IC50,[14],> 50 mg/L
same,neutralization IC50,[15],> 50 mg/L
same,neutralization IC50,[16],30.9 mg/L
same,neutralization IC50,[17],9.63 mg/L
same,neutralization IC50,[18],> 50 mg/L
same,neutralization IC50,[19],8.1 mg/L
same,neutralization IC50,[20],> 50 mg/L
same,neutralization IC50,[21],> 50 mg/L
same,neutralization IC50,[22],> 50 mg/L
same,neutralization IC50,[23],> 50 mg/L
same,neutralization IC50,[24],> 50 mg/L
same,neutralization IC50,[25],> 50 mg/L
same,neutralization IC50,[26],> 50 mg/L
same,neutralization IC50,[27],> 50 mg/L
same,neutralization IC50,[28],> 50 mg/L
same,neutralization IC50,[29],> 50 mg/L
same,neutralization IC50,[30],> 50 mg/L
same,neutralization IC50,[31],> 50 mg/L
same,neutralization IC50,[32],> 50 mg/L
same,neutralization IC50,[33],> 50 mg/L
same,neutralization IC50,[34],> 50 mg/L
same,neutralization IC50,[35],> 50 mg/L
same,neutralization IC50,[36],> 50 mg/L
same,neutralization IC50,[37],> 50 mg/L
same,neutralization IC50,[38],> 50 mg/L
same,neutralization IC50,[39],> 50 mg/L
same,neutralization IC50,[40],> 50 mg/L
same,neutralization IC50,[41],0.217 mg/L
same,neutralization IC50,[42],> 50 mg/L
same,neutralization IC50,[43],> 50 mg/L
same,neutralization IC50,[44],> 50 mg/L
same,neutralization IC50,[45],> 50 mg/L
same,neutralization IC50,[46],> 50 mg/L
same,neutralization IC50,[47],> 50 mg/L
same,neutralization IC50,[48],> 50 mg/L
same,neutralization IC50,[49],> 50 mg/L
same,neutralization IC50,[50],> 50 mg/L
"CAP256-VRC26.06 (antibody, V domains shown) VH: EVQLIESGGGVVQPGRSLRLSCGASGFSFNNYGMHWVRQAPGKGLEWVAGISFAGIKKYYGTSVKGRFTISRDNSKNNFYLQMNSLRVEDTALYYCARDLRELECEEWTLYNYYDFGSRGPCVDPRGVAGSFDVWGQGTMVTVSS VL: QSVLTQPPSVSAAPGQKVTISCSGSTSKIGQNSVSWYQQLPGTAPKLLIYENDRRPSGTPDRFSGSKSGTSATLAITGLQTGDEAEYYCETWDGSGGVFGTGTKVTVLG",neutralization IC50,[1],> 50 mg/L
same,neutralization IC50,[2],> 50 mg/L
same,neutralization IC50,[3],> 50 mg/L
same,neutralization IC50,[4],> 50 mg/L
same,neutralization IC50,[5],> 50 mg/L
same,neutralization IC50,[6],0.222 mg/L
same,neutralization IC50,[7],> 50 mg/L
same,neutralization IC50,[8],0.055 mg/L
same,neutralization IC50,[9],> 50 mg/L
same,neutralization IC50,[10],> 50 mg/L
same,neutralization IC50,[11],> 50 mg/L
same,neutralization IC50,[12],> 50 mg/L
same,neutralization IC50,[13],> 50 mg/L
same,neutralization IC50,[14],> 50 mg/L
same,neutralization IC50,[15],0.03 mg/L
same,neutralization IC50,[16],> 50 mg/L
same,neutralization IC50,[17],> 50 mg/L
same,neutralization IC50,[18],> 50 mg/L
same,neutralization IC50,[19],> 50 mg/L
same,neutralization IC50,[20],> 50 mg/L
same,neutralization IC50,[21],> 50 mg/L
same,neutralization IC50,[22],> 50 mg/L
same,neutralization IC50,[23],0.178 mg/L
same,neutralization IC50,[24],> 50 mg/L
same,neutralization IC50,[25],4.25 mg/L
same,neutralization IC50,[26],> 50 mg/L
same,neutralization IC50,[27],> 50 mg/L
same,neutralization IC50,[28],> 50 mg/L
same,neutralization IC50,[29],> 50 mg/L
same,neutralization IC50,[30],> 50 mg/L
same,neutralization IC50,[31],> 50 mg/L
same,neutralization IC50,[32],> 50 mg/L
same,neutralization IC50,[33],> 50 mg/L
same,neutralization IC50,[34],> 50 mg/L
same,neutralization IC50,[35],> 50 mg/L
same,neutralization IC50,[36],> 50 mg/L
same,neutralization IC50,[37],> 50 mg/L
same,neutralization IC50,[38],0.022 mg/L
same,neutralization IC50,[39],> 50 mg/L
same,neutralization IC50,[40],0.003 mg/L
same,neutralization IC50,[41],0.729 mg/L
same,neutralization IC50,[42],> 50 mg/L
same,neutralization IC50,[43],> 50 mg/L
same,neutralization IC50,[44],> 50 mg/L
same,neutralization IC50,[45],> 50 mg/L
same,neutralization IC50,[46],> 50 mg/L
same,neutralization IC50,[47],> 50 mg/L
same,neutralization IC50,[48],0.308 mg/L
same,neutralization IC50,[49],> 50 mg/L
same,neutralization IC50,[50],> 50 mg/L
